Measured values reported in patent publication US11673947B2, “Target tissue-specific antigen-binding molecule” (Chugai Seiyaku Kabushiki Kaisha, priority 2012, dated 2023).

Test system: CHO/hIL6R (CHO cells expressing human IL-6 receptor)
Assay: ADCC (chrome release) with NK92-CD16(V) as effector cells against CHO/hIL6R cells
Format: cell-based
Conditions: in the presence of ATP, various antibody concentrations; variants with increased effector activity
Description: The obtained antibodies 6RAD2C1-4_030 and 6RAD2C1-4_011 were assessed by the method described below to test whether ADCC activity against hIL-6R-expressing cells is mediated via hIL-6R binding of the antibodies in the presence of adenosine triphosphate (ATP). […] At various antibody concentrations in the presence or absence of ATP, 6RAD2C1-4_030, 6RAD2C1-4_011, and MRA were assessed for the ADCC activity to hIL-6R-expressing cells according to the method described in Reference Example 3.
Antibodies that bind to antigens in an ATP-dependent manner were assessed for their ADCC activity against antigen-expressing cells at various antibody concentrations according to the method described below. […]
ADCC activity was assessed based on the specific chrome release rate determined by chrome release assay. […] 100 μl of culture supernatant from each well of the plate was measured for radioactivity using a gamma counter. The specific chrome release rate was determined based on the equation described in Reference Example 1.

Molecule | ADCC activity against hIL-6R-expressing cells
6RAD2C1-4_030: antibody that binds to hIL-6R in the presence of ATP; variable regions SEQ ID NOs: 119 and 120 (antibody, listed as Homo sapiens, V domains shown) VH: EVQLVESGGDLVKPGGGLRLSCAASGFTFSSYTMNWVRQAPGKGLEWVSSISSRSGYAYYADSVKGRFTISRDNAKNSLYLQMNSLRAEDTAVYYCARFGALNTLNWVFDYWGQGTLVTVSS VL: QSALTQPPSASGSPGQTVTISCTGTSTDVGDYNYVSWYQQHPGKAPKLMIYQVSKKPSGVPDRFSGSKSGNTASLTVSGLQAEDEADYFCSTRTANAGVLFGGGTKLTVL | antibody concentration-dependent ADCC activity
6RAD2C1-4_011: antibody that binds to hIL-6R in the presence of ATP; variable regions SEQ ID NOs: 82 and 83 (antibody, listed as Homo sapiens, V domains shown) VH: EVQLVESGGDLVKPGGGLRLSCAASGFTFSGHTMNWVRQAPGKGLEWVSSISSRSSYIYYADSVKGRFTISRDNAKNSLYLQMNSLRAEDTAVYYCARYGALGQMNWVFDYWGQGTLVTVSS VL: QSALTQPPSASGSPGQTVTISCTGTSTDVGDYNYVSWYQQHPGKAPKLMIYSVSKRPSGVPDRFSGSKSGNTASLTVSGLQAEDEADYFCSSRSSSMNVLFGGGTKLTVL | antibody concentration-dependent ADCC activity
